Measurements taken from paper PMC7494424 (Nature methods, 2019).

Target: the molecule itself
Assay: cryo-EM structure

B1: P. falciparum glutamine synthetase (enzyme, UniProt C0H551 1-543, looked up)
chain: MKSVSFSNNAELYEYIKDKKNDVEIVACIITNLLGTYFKCFFYVKEITLNKLESGFSFDASSIKLCSDTEVSDFFIKVDHSTCYLEECDGKNILNIMCDIKRYNGFDYYKCPRTILKKTCEFVKNEGIADKVCIGNELEFFIFDKVNYSLDEYNTYLKVYDRESFSCKNDLSSIYGNHVVNKVEPHKDHFNNPNNEYLINDDSKKVKKKSGYFTTDPYDTSNIIKLRICRALNDMNINVQRYHHEVSTSQHEISLKYFDALTNADFLLITKQIIKTTVSSFNRTATFMPKPLVNDNGNGLHCNISLWKNNKNIFYHNDPSTFFLSKESFYFMYGIVKHAKALQAFCNATMNSYKRLVPGFETCQKLFYSFGSRSAVIRLSLINYSNPSEKRIEFRLPDCANSPHLVMAAIILAGYDGIKSKEQPLVPFESKDNHFYISSIFSKYVQHPENFNILTHALEGYESLHTINESPEFKNFFKCEEPQGISFSLVESLDALEKDHAFLTVNNIFTEEMIQEYIKFKREEIDAYNKYVNAYDYHLYYEC
  stoichiometry N: 12

B2: P. falciparum M18 aspartyl aminopeptidase (enzyme, UniProt Q8I2J3 1-570, looked up)
chain: MDKKAREYAQDALKFIQRSGSNFLACKNLKERLENNGFINLSEGETWNLNKNEGYVLCKENRNICGFFVGKNFNIDTGSILISIGHIDSCALKISPNNNVIKKKIHQINVECYGSGLWHTWFDRSLGLSGQVLYKKGNKLVEKLIQINKSVLFLPSLAIHLQNRTRYDFSVKINYENHIKPIISTTLFNQLNKCKRNNVHHDTILTTDTKFSHKENSQNKRDDQMCHSFNDKDVSNHNLDKNTIEHLTNQQNEEKNKHTKDNPNSKDIVEHINTDNSYPLLYLLSKELNCKEEDILDFELCLMDTQEPCFTGVYEEFIEGARFDNLLGSFCVFEGFIELVNSIKNHTSNENTNHTNNITNDINDNIHNNLYISIGYDHEEIGSLSEVGARSYCTKNFIDRIISSVFKKEIHEKNLSVQEIYGNLVNRSFILNVDMAHCSHPNYPETVQDNHQLFFHEGIAIKYNTNKNYVTSPLHASLIKRTFELYYNKYKQQIKYQNFMVKNDTPCGSTVGSMVAANLSMPGIDIGIPQLAMHSIREIAAVHDVFFLIKGVFAFYTYYNQVLSTCVHDK
  stoichiometry N: 12
